Assay [1] concerns the target T1, BSA conjugated CD28 stalk region dimeric peptide (human, also: dimer through the cysteine, BSA conjugated via C-terminal Lys by hydrazide chemistry).
T1 construct: Peptide used for immunization and, BSA conjugated, as ELISA antigen for M9; also called stalk region peptide
T1 peptide: GKHLCPSPLFPGPSKPK
Put plainly: ELISA, antigen immobilized, serial dilution of M9, anti mouse IgG-HRP (FIG. 12A).

The target of assay [2] is T2, Biotin conjugated L145K CD28 stalk region dimeric peptide (human, C-terminal biotin; dimer through Cysteine 141).
T2 peptide: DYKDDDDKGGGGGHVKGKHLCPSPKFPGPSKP
Put plainly: direct ELISA on L145K dimeric stalk peptide on neutravidin plates, anti His tag-HRP (FIG. 23).

Assay [3] deals with T3, membranal human CD28 (full-length human CD28 on cells) (human, UniProt P10747 19-220).
T3 construct: in the functional assays also the CD28 of human CD3 or CD4 T cells and PBMC; also called mCD28; membranal CD28
Description: FACS, FITC conjugated VHH on HEK cells overexpressing human CD28 (FIG. 14).

Where no end group is shown, it is not given here.

B1: antibody M9 (antibody, V domains shown)
VH: DVKLVESGGGLVKLGGSLKLSCVASGFTFSSYYMSWVRQTPEKRLEWVATISDGGDNTYYAGTVTGRFTISRDFAKNTLYLQMNSLTSEDTAVYYCARIHWPYYFDSWGQGTTLTVSS
VL: QFVLSQSPAILSASPGEMLTMTCRASSSVSYMNWYQQKPGSSPKPWIYATSDLASGVPARFSGSGSGTSYSLTISRVEAEDAATYYCQQWSSHPPTFGGGTKLEIR
notes: Full-size mouse antibody raised in CD1 mice against the dimeric stalk peptide; detected with anti mouse IgG; also called clone M9; anti-cleavage antibody M9
B1: the binding result in assay [1] is listed as “binds”.

B2: VHH clone 4A4 (VHH)
VHH: EVQLVESGGGLVQAGGSLRLSCAASGSLFSINAMAWYRQAPGKQRELVAAITSSGSTNYANSVKGRFTVSRDNAKNTMYLQMNSLKPEDTAVYYCVVDEYGSDYWIWGQGTQVTVSS
Consider B2, for which, in assay [2], the binding result is recorded as “no binding (tested: 0.2-5 µg/mL)”.

B3: VHH clone 4A1 (VHH)
VHH: QVQLVESGGGLVQAGGSLRLSCAASGSIFSINAMGWYRQAPGKQRERVAAITSGGSTNYADSVKGRFTISRDNAKNTVYLQMNNLEPRDAGVYYCVVDLYGEDYWIWGQGTQVTVSS
As for B3, the binding result in assay [2] is “no binding (tested: 0.2-5 µg/mL)”.

B4: VHH clone 2A1 (VHH)
VHH: EVQLVESGGGLVQAGESLRLSCAASGSIASINAMGWYRQAPGSQRELVAAISGGGDTYYADSVKGRFTISRDNAKTTVYLQMNSLRPEDTAVYYCVVDLYGSDYWDWGQGTQVTVSS
notes: also called VHH #2A1
Take B4: the binding result in assay [2] is listed as “no binding (tested: 0.2-5 µg/mL)”; in assay [3], “binds”.

(Values after patent publication US20220169732A1 (BIOND BIOLOGICS, published 2022).)
